In publication PMC5700101:

B1: Luc-KD (KD–IDL of Polo, amino acids 1–349, N-terminally fused to RLucII), KD^WT [Drosophila] / PBD–GFP (PBD of Polo, amino acids 350–576, C-terminally fused to GFP10) [Drosophila] (parent)
chain 1: MAAKPEDKSTDIPDRLVDINQRKTYKRMRFFGKGGFAKCYEIIDVETDDVFAGKIVSKKLMIKHNQKEKTAQEITIHRSLNHPNIVKFHNYFEDSQNIYIVLELCKKRSMMELHKRRKSITEFECRYYIYQIIQGVKYLHDNRIIHRDLKLGNLFLNDLLHVKIGDFGLATRIEYEGERKKTLCGTPNYIAPEILTKKGHSFEVDIWSIGCVMYTLLVGQPPFETKTLKDTYSKIKKCEYRVPSYLRKPAADMVIAMLQPNPESRPAIGQLLNFEFLKGSKVPMFLPSSCLTMAPRIGSNDTIEDSMHRKPLMEMNGIRPDDTRLESTFLKANLHDAITASAQVCRHSE
chain 2: DYRSDIESLYQQLTNLINGKPRILQGNLGDENTDPAAQPLFWISKWVDYSDKYGFGYQLCDEGIGVMFNDTTKLILLPNQINVHFIDKDGKETYMTTTDYCKSLDKKMKLLSYFKRYMIEHLVKAGANNVNIESDQISRMPHLHSWFRTTCAVVMHLTNGSVQLNFSDHMKLILCPRMSAITYMDQEKNFRTYRFSTIVENGVSKDLYQKIRYAQEKLRKMLEKMFT

Variants of: B1
Experiment: BRET
Conditions: with PBD–GFP (PBD of Polo, amino acids 350–576, C-terminally fused to GFP10) [Drosophila]; live HEK293T cells; fixed amount of Luc-KD vector, increasing PBD–GFP vector; Map205 fragment co-transfected; p-value 0.0374; parent: 0.197

screen value [GFP/Luc]	Variant
0.412	chain 1 MAAKPEDKSTDIPDRLVDINQRKTYKRMRFFGKGGFAKCYEIIDVETDDVFAGKIVSKKLMIKHNQKEKTAQEITIHRSLNHPNIVKFHNYFEDSQNIYIVLELCKKRSMMELHKRRKSITEFECRYYIYQIIQGVKYLHDNRIIHRDLKLGNLFLNDLLHVKIGDFGLATRIEYEGERKKDLCGTPNYIAPEILTKKGHSFEVDIWSIGCVMYTLLVGQPPFETKTLKDTYSKIKKCEYRVPSYLRKPAADMVIAMLQPNPESRPAIGQLLNFEFLKGSKVPMFLPSSCLTMAPRIGSNDTIEDSMHRKPLMEMNGIRPDDTRLESTFLKANLHDAITASAQVCRHSE [chain 1 T182D]

Same assay, conditions: with PBD–GFP (PBD of Polo, amino acids 350–576, C-terminally fused to GFP10) [Drosophila]; live HEK293T cells; fixed amount of Luc-KD vector, increasing PBD–GFP vector; Map205 fragment co-transfected; p-value 0.4037; parent: 0.197

screen value [GFP/Luc]	Variant
0.148	chain 1 MAAKPEDKSTDIPDRLVDINQRKTYKRMRFFGKGGFAKCYEIIDVETDDVFAGKIVSKKLMIKHNQKEKTAQEITIHRSLNHPNIVKFHNYFEDSQNIYIVLELCKKRSMMELHKRRKSITEFECRYYIYQIIQGVKYLHDNRIIHRDLKLGNLFLNDLLHVKIGDFGLATRIEYEGERKKALCGTPNYIAPEILTKKGHSFEVDIWSIGCVMYTLLVGQPPFETKTLKDTYSKIKKCEYRVPSYLRKPAADMVIAMLQPNPESRPAIGQLLNFEFLKGSKVPMFLPSSCLTMAPRIGSNDTIEDSMHRKPLMEMNGIRPDDTRLESTFLKANLHDAITASAQVCRHSE [chain 1 T182A]
